# Data: patent US20210340273A1 (INHLBRX, published 2021)
# T1: human 5T4 (trophoblast glycoprotein), endogenous on the cell surface (human, UniProt Q13641 32-420)
# T1 construct: also called TPBG; 5T4 oncofetal antigen
# T1 sequence: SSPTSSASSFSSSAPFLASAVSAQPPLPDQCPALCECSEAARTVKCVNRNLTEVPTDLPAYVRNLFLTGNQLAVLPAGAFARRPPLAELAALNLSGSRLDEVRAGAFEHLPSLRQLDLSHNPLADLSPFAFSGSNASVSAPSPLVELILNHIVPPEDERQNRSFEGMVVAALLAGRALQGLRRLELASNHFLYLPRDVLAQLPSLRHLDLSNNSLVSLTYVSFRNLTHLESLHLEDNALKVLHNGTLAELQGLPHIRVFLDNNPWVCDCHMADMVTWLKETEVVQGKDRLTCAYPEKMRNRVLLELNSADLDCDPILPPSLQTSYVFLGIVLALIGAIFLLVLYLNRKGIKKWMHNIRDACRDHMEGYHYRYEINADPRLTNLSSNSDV
# T2: human 5T4 construct (Hu), full 5T4 coding region fused to an intracellular Citrine tag, on transfected CHO … (human, UniProt Q13641 32-420)
# T2 construct: also called fully human construct; not shown: intracellular Citrine tag
# T2 sequence: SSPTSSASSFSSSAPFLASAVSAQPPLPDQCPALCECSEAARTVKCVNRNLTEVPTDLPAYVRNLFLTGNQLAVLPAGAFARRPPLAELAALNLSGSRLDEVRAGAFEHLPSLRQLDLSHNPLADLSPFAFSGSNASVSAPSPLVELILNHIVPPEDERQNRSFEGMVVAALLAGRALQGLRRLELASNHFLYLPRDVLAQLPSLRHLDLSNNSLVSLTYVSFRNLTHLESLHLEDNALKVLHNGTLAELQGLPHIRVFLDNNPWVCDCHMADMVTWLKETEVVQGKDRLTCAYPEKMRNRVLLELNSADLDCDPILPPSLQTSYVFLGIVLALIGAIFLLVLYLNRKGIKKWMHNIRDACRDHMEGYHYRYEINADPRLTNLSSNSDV
# T3: hmc5T4.2
# T3 construct: the rest is mouse 5T4; also called chimeric hmc5T4.2; not shown: intracellular Citrine tag fused to the full coding region
# T3 chain: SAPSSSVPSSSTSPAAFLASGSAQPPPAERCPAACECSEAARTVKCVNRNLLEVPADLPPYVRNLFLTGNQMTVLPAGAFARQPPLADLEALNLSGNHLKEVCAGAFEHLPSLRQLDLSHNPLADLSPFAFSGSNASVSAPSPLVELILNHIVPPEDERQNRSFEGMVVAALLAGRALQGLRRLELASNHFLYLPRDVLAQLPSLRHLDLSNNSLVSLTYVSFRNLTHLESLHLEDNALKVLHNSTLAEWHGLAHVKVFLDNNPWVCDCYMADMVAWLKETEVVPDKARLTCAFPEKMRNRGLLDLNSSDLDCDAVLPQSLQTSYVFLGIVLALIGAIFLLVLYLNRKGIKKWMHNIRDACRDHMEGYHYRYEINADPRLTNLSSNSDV
# T4: murine 5T4 construct (Mu), full 5T4 coding region fused to an intracellular Citrine tag, on transfected CHO … (mouse, UniProt Q9Z0L0 32-426)
# T4 construct: also called fully murine construct; mouse 5T4 antigen; not shown: intracellular Citrine tag
# T4 sequence: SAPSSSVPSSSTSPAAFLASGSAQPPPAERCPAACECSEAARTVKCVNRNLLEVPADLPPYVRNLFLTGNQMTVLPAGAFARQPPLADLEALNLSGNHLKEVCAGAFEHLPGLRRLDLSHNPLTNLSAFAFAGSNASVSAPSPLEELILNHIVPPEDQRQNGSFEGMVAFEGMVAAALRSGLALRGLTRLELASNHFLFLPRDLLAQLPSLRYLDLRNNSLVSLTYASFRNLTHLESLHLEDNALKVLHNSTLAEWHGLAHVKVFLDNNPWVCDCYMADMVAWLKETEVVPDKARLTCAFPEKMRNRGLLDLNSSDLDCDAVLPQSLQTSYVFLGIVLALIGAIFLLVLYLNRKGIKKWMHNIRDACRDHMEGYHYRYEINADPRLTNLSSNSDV
# T5: hmc5T4.1
# T5 construct: the rest is mouse 5T4; also called chimeric hmc5T4.1; hybrid mouse/human 5T4 with human residues 1-173 of the extracellular domain; not shown: intracellular Citrine tag fused to the full coding region
# T5 chain: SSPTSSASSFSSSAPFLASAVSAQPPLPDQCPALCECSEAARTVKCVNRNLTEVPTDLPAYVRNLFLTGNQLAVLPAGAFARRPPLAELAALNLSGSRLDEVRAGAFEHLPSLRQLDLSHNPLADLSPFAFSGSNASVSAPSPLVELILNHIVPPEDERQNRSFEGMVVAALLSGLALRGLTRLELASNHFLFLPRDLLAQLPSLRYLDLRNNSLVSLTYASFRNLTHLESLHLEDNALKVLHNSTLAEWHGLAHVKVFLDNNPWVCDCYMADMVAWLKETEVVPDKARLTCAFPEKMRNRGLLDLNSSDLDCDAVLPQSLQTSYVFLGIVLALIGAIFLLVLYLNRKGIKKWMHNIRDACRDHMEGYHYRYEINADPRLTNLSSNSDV
# Legend:
# [1] = molecular target: T6, CD3 on the surface of primary human T cells or Jurkat reporter cells (human, UniProt P07766 23-207); assay: printed as Affinity CD3; flow cytometry titration on primary human T cells
# T6 construct: whole, on cells; also called CD3 epsilon
# T6 sequence (P07766 23-207): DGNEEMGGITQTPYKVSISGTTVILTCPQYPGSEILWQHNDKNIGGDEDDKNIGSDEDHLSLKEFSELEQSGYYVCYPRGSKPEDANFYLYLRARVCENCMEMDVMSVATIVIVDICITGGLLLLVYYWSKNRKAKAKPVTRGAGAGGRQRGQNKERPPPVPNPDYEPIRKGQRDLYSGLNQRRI
# [2] = molecular target: T1, human 5T4 (trophoblast glycoprotein), …; assay: printed as Affinity 5T4; apparent affinity from flow cytometry titration on Ovcar-5 cells
# Description: Binding of exemplary 5T4-targeting constrained CD3 engaging constructs set forth in Table E3 to CD3 on the surface of primary T cells and 5T4 expressing cells (Ovcar-5) was assessed by flow cytometry. The T cells were primary T-cells that were negatively enriched from PBMCs isolated from healthy human donor leukopaks. Bound construct was detected with fluorophore-conjugated secondary antibodies specific for the human Fc (anti-human IgG APC secondary antibody) and binding was measured by flow cytometry. Cells incubated with secondary antibody only served as negative controls. The results, from flow cytometry histograms displaying normalized cell counts versus fluorescence at 200 nM of each construct, are shown in FIG. 4A (cx3253), FIG. 4B (cx3264), FIG. 4C (cx3497), FIG. 4D (cx3499), FIG. 4E (cx3547), FIG. 4F (cx3546), FIG. 4G (cx4224), FIG. 4H (cx4913), FIG. 4I (cx3265), […] (cx4912), FIG. 4K (cx3262), FIG. 4L (cx4911), and FIG. 4M (cx4910). […] However, as shown in the top right and bottom panels of each of the figures, the same constructs were not able to bind to T cells in isolation.
# Table E4 summarizes the affinity of exemplary molecules for 5T4 or CD3, as determined from flow cytometry, in these studies.
# [3] = molecular target: T2, human 5T4 construct (Hu), full 5T4 …; assay: flow cytometry on CHO cells transiently transfected with the 5T4 construct
# Text: (§1) In order to determine the location of the epitope recognized by these sdAbs, various mouse:human chimeric 5T4 constructs were generated, wherein various portions of the murine extracellular domain of 5T4 were replaced with that of human 5T4. The constructs were generated by grafting a nucleic acid sequence encoding the specific region of human 5T4 into the cognate region of mouse 5T4 in a mammalian expression plasmid encoding the full 5T4 coding region (extracellular domain, transmembrane domain, intracellular domain) fused to an intracellular Citrine tag. […] CHO cells were transiently transfected with these constructs to enable cell surface expression, and binding was monitored by flow cytometry.
# [4] = molecular target: T3, hmc5T4.2; assay: as above
# Text: as §1
# [5] = molecular target: T4, murine 5T4 construct (Mu), full 5T4 …; assay: as above
# Text: as §1
# [6] = molecular target: T4, murine 5T4 construct (Mu), full 5T4 …; assay: flow cytometry on CHO cells transfected with the fully murine 5T4 construct (Mu, FIG. 26C)
# Text: as §1
# [7] = molecular target: T2, human 5T4 construct (Hu), full 5T4 …; assay: flow cytometry on CHO cells transfected with human, mouse and chimeric 5T4 constructs
# Text: as §1
# [8] = molecular target: T1, human 5T4 (trophoblast glycoprotein), …; assay: flow cytometry, sdAb-Fc on 5T4 expressing T47D cells
# [9] = molecular target: T5, hmc5T4.1; assay: flow cytometry on CHO cells transiently transfected with the 5T4 construct
# Text: as §1
binder,measurement,setting,value
"cx3264, 5T4-targeted constrained CD3 engaging construct with a 41BB binding domain (bispecific antibody) chain 1: QVQLQESGGGLVQAGGSLRLSCAASRRPFSSKTMAWFRQTPGKEREFVAAVRWIGGATRYTDSVKGRFSISKDNAINTVYLQTNSLKSEDTAVYYCAAGQTWGTKFTDYSDWGQGTLVTVKPDKTHTCPPCPAPELLGGPSVFLFPPKPKDTLMISRTPEVTCVVVDVSHEDPEVKFNWYVDGVEVHNAKTKPREEQYNSTYRVVSVLTVLHQDWLNGKEYKCKVSNKALPAPIEKTISKAKGQPREPQVYTLPPCRDELTKNQVSLWCLVKGFYPSDIAVEWESNGQPENNYKTTPPVLDSDGSFFLYSKLTVDKSRWQQGNVFSCSVMHEALHNHYTQKSLSLSPTGGSGGGGIEPDIGGSGGSEVQLVESGGGLVQPGGSLRLSCAASGFTFNTYAMNWVRQAPGKCLEWVARIRSKYNNYATYYADSVKGRFTISRDDAKNTLYLQMSSLRAEDTAVYYCVRHGNFGNSYVSWFAYWGQGTLVTVKPQVQLQESGGGLVQAGGSLRLSCAASRRPFSSKTMAWFRQTPGKEREFVAAVRWIGGATRYTDSVKGRFSISKDNAINTVYLQTNSLKSEDTAVYYCAAGQTWGTKFTDYSDWGQGTLVTVKP chain 2: not shown",Kd,[1],> 200 nM
same,Kd,[2],0.145 nM
"hz16G10v11 sdAb-Fc (Fc fusion, Humanized variant of 16G10, linked to a human Fc; also called hz16G10v11-Fc; cx7885; not shown: human Fc) EVQLVESGGGEVQPGGSLRLSCAASGRPFSSYAMGWFRQAPGKERETVAAVSRNAGSSYYAESVKGRFTISRDNAKNTVYLQMSSLRAEDTAVYYCAARSAAYSRSSETYTEKHDYTYWGQGTLVTVKP",EC50 (read off the curve),[3],~3 nM
same,EC50 (read off the curve),[4],~2 nM
same,binding result,[5],no binding (tested: about 500 nM)
"hz14B5v17 sdAb-Fc (Fc fusion, Humanized variant of 14B5, linked to a human Fc; not shown: human Fc) EVQLVESGGGEVQPGGSLRLSCAASERPFGTYAMGWFRQAPGKERDLVAAVSRNAGASYYAESVKGRFTISRDNAKNTVYLQMSSLRAEDTAVYYCAARSAAYSRSSEVYTGKDEYYYWGQGTLVTVKP",binding result,[6],no binding
same,binding result,[7],binds
same,binding result,[8],binds
"hz12E9v9 sdAb-Fc (Fc fusion, Humanized variant of 12E9; also called hz12E9v09; hz12E9v9-Fc; not shown: human Fc) EVQLVESGGGEVQPGGSLRLSCAASGRPFSSKTMAWFRQAPGKEREFVAAVRWIGGATRYTESVKGRFTISRDNAKNTVYLQMSSLRAEDTAVYYCAAGQAWGTKFTDYSDWGQGTLVTVKP",EC50 (read off the curve),[3],~1 nM
same,EC50 (read off the curve),[9],~0.8 nM
same,binding result,[5],no binding (tested: about 500 nM)
